Results on two molecules are retold here after PMC10576089, “Integrative solution structure of PTBP1-IRES complex reveals strong compaction and ordering with residual conformational flexibility”.

Data set [1] addresses PTBP1 RRM1 (UniProt P26599-1 41-163). Kind of data set: NMR (intermolecular NOEs); binding register confirmed; NMR/SANS: 10 mM NaPO4 pH 6.5, 20 mM NaCl, 1-2 mM DTT; protein NMR at 313/323 K, imino spectra 278-293 K; DEER 1:1 d8-glycerol at 50 K; SAS 23 C. To be noted: protein: recombinant; hairpin.
Data set [2] deals with PTBP1 (hnRNP I) (UniProt P26599-1 1-531, C250S;C251S). Kind of data set: NMR; SAXS/SANS; CLIR-MS/MS; integrative structure; ensemble in Zenodo 10.5281/zenodo.7798970; NMR/SANS: 10 mM NaPO4 pH 6.5, 20 mM NaCl, 1-2 mM DTT; protein NMR at 313/323 K, imino spectra 278-293 K; DEER 1:1 d8-glycerol at 50 K; SAS 23 C. The following applies: protein: recombinant; stem-loops D, E and F with single-stranded linkers.
PTBP1 (hnRNP I), sequence (P26599 other isoform, or with tags, fused parts or gaps C250S;C251S): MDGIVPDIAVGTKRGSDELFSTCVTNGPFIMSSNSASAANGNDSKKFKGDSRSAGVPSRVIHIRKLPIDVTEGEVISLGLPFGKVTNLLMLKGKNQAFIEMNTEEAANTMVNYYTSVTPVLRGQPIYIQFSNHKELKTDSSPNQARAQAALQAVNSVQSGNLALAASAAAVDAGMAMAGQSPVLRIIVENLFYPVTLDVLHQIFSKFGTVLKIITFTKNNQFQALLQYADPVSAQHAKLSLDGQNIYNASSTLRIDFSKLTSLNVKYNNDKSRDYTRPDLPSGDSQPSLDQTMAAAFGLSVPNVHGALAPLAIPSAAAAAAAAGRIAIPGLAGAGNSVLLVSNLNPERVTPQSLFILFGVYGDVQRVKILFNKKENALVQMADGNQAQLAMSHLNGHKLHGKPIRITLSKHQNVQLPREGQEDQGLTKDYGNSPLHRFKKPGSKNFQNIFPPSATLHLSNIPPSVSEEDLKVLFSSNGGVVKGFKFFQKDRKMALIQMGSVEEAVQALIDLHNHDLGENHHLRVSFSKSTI

PTBP1 RRM1, sequence (P26599 41-163): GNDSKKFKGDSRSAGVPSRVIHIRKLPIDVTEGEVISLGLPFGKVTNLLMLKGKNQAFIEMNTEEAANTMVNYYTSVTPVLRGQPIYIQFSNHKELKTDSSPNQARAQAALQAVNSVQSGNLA

B1: SLE (structured_RNA)
RNA: GGAGCGUUUGUCUAUAUGUUCC
With B1, the binding result in data set [1] is listed as “binds”.

B2: EMCV-IRES-DtoF (structured_RNA)
RNA: UACUGGCCGAAGCCGCUUGGAAUAAGGCCGGUGUGCGUUUGUCUAUAUGUUAUUUUCCACCAUAUUGCCGUCUUUUGGCAAUGUG
For the molecule B2, the binding result in data set [2] is “binds”.
